Experimental data reported in publication PMC10080726 (Molecular cell, 2023).
Blank lines part the entries; values can stand above or below the molecule they belong to. No end group written: not given here.

Assays:
[1] = molecular target: KLHDC3-EloBC complex (full-length KLHDC3, EloB, EloC) (UniProt Q9BQ90)
[2] = molecular target: 10xHis-KLHDC2 SBD (residues 15-361) (human) (UniProt Q9Y2U9); test: SPR
[3] = molecular target: KLHDC2-EloBC substrate receptor complex (full-length WT KLHDC2, EloB, EloC) (UniProt Q9Y2U9); test: SEC
[4] = molecular target: KLHDC2-EloBC substrate receptor complex (full-length WT KLHDC2, EloB, EloC) (UniProt Q9Y2U9); test: AUC
[5] = test system: neddylated CRL2^KLHDC2; test: Pulse-chase ubiquitylation of substrates or KLHDC2; assay type: biochemical, human
[6] = test system: KLHDC2-EloBC; test: Native gel electrophoresis, substrate; assay type: binding, human
[7] = test system: CUL2-RBX1; test: CUL2-RBX1 neddylation pulse-chase; assay type: biochemical, human; conditions: tetramer supplied with substrate, without CAND1
[8] = molecular target: T1, KLHDC2 SBD (Homo sapiens, UniProt Q9Y2U9); test: SPR binding to immobilised KLHDC2 SBD; conditions: for Kd: 10xHis-KLHDC2 SBD, pH 7.4, 20°C, triplicate, 1-site model, substrates (Figure S1C)
T1 sequence (Q9Y2U9 15-361): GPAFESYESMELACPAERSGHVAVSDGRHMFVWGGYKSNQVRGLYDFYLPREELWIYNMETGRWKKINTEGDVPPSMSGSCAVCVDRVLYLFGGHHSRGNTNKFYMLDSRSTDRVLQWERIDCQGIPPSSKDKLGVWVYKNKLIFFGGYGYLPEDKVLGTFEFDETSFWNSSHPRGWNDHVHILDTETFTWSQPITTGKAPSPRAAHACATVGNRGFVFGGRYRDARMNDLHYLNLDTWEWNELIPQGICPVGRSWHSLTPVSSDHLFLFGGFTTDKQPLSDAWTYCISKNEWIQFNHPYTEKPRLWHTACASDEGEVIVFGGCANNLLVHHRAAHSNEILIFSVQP

[9] = molecular target: T2, 10xHis-KLHDC2 SBD (residues 15-361) (human, UniProt Q9Y2U9 15-361); test: SPR
T2 sequence (looked up): T1 sequence (Q9Y2U9 15-361)

[10] = test system: CRL2^KLHDC2; test: Pre-steady state rapid quench flow ubiquitylation; assay type: biochemical, human; conditions: KLHDC2 -KK, UBE2R2, one-hour equilibration of substrate with E3, triplicate
[11] = molecular target: the molecule itself; test: crystal structure
[12] = test system: CUL2 in 293T cells; test: FLAG immunoprecipitation of KLHDC2, associated CUL2 neddylation state; assay type: cell-based, human; conditions: FLAG-KLHDC2, no treatment
[13] = test system: KLHDC2 in U2OS cells; test: K48-ubiquitylation of FLAG-KLHDC2 in U2OS cells; assay type: cell-based, human; conditions: Bortezomib 1 μM, five hours, K48 antibody
[14] = test system: NEDD8 in U2OS cells; test: Steady-state NEDD8 levels in U2OS cells; conditions: ectopic expression in KLHDC2 KO U2OS
[15] = test system: KLHDC2 in U2OS cells; test: Steady-state KLHDC2 protein levels in U2OS cells
[16] = test system: USP1 N-fragment in U2OS cells; test: Steady-state USP1 N-fragment levels in U2OS cells; conditions: exogenous rescue in KLHDC2 KO U2OS, n=3 technical replicates
[17] = molecular target: T3, KLHDC2 substrate-binding domain (SBD), residues 15-361 (human, UniProt Q9Y2U9 15-361); test: crystal structure
T3 sequence (looked up): T1 sequence (Q9Y2U9 15-361)

Molecule: KLHDC2-EloBC substrate receptor complex (full-length WT KLHDC2, EloB, EloC) (from UniProt Q9Y2U9 1-406; Q15370 1-104; Q15369 17-112)
Kd [3]: 0.18 to 0.26 nM
Kd [4]: 0.15 nM

Molecule: GFP-RIC8B: C-terminal 23 amino-acids of RIC8B appended to the C-terminus of GFP ({GFP}-TITPLEEALNQYSVIEETSSDTD)
Kd [8]: 460 nM

Molecule: CUL2-RBX1: CUL2-RBX1 complex
required pre-incubation time for KLHDC2-FAM-SELK complex formation ([6]; with CUL2-RBX1): < 3 h

B2: FAM-USP1: fluorescein-labeled USP1 fragment (protein)
chain: GHYTASVKVTDLNSLELDKGNFVVDQMCEIGKPEPLNEEEARGVVENYNDEEVSIRVGGNTQPSKVLNKKNVEAIGLLGG
modifications: fluorescein on the amino-terminus (sortase-mediated ligation of FAM-(PEG)5-LPETGG peptide); left off: GST, N-terminal, cleaved
complex formation with KLHDC2-EloBC (in words) ([6]; 20-fold molar excess of ligand, 4-hour pre-incubation): only minimal interaction

B4: KLHDC2, full length (the KLHDC2 chain of the KLHDC2-EloBC crystal structure) (natural protein, human, UniProt Q9Y2U9 1-406, looked up)
chain: MADGNEDLRADDLPGPAFESYESMELACPAERSGHVAVSDGRHMFVWGGYKSNQVRGLYDFYLPREELWIYNMETGRWKKINTEGDVPPSMSGSCAVCVDRVLYLFGGHHSRGNTNKFYMLDSRSTDRVLQWERIDCQGIPPSSKDKLGVWVYKNKLIFFGGYGYLPEDKVLGTFEFDETSFWNSSHPRGWNDHVHILDTETFTWSQPITTGKAPSPRAAHACATVGNRGFVFGGRYRDARMNDLHYLNLDTWEWNELIPQGICPVGRSWHSLTPVSSDHLFLFGGFTTDKQPLSDAWTYCISKNEWIQFNHPYTEKPRLWHTACASDEGEVIVFGGCANNLLVHHRAAHSNEILIFSVQPKSLVRLSLEAVICFKEMLANSWNCLPKHLLHSVNQRFGSNNTSGS
binding result [11]: binds

B5: WT KLHDC2: FLAG-tagged WT KLHDC2 expressed in cells; KLHDC2 in CRL2^KLHDC2 (protein)
chain: B4 chain
modifications: left off: FLAG, N-terminal, kept
auto-ubiquitylation of KLHDC2 ([5]; no substrate, UB~UBE2R2): rapidly ubiquitylated
co-precipitated CUL2 neddylation state (in words) [12]: co-precipitated a mixture of unmodified and neddylated CUL2
ubiquitylation of KLHDC2 (in words) [13]: more ubiquitylated than their monomeric counterparts
NEDD8 levels (in words) [14]: reduced the levels of unconjugated NEDD8
exogenous expression relative to endogenous KLHDC2 ([15]; U2OS): roughly 10 -fold
KLHDC2 protein level (in words) ([15]; stable FLAG-KLHDC2 in KLHDC2 KO U2OS): significantly lower than that of CΔ6 and -KK monomers
reduction of USP1 N-fragment levels [16]: ~ 4 fold

Now from value to molecule, other results behind:

stoichiometry N [1]: 4
Molecule: KLHDC3-EloBC complex (full-length KLHDC3, EloB, EloC) (from UniProt Q9BQ90 1-382; Q15370 1-104; Q15369 17-112)

Kd [2]: 1400 nM
Molecule: WT KLHDC2-derived peptide (C-terminus of KLHDC2) used in SPR

FAM-SELK binding (in words) ([6]; native gel, 2.5 μM KLHDC2, pH 7.5): a single band appeared
Molecule: KLHDC2-EloBC: full-length KLHDC2-EloBC substrate receptor complex, tetrameric
auto-ubiquitylation of KLHDC2 ([5]; UB~UBCH5B, WT or C-degron mutants, with or without SELK): subject to auto-ubiquitylation
rate of CUL2-RBX1 neddylation (in words) [7]: greatest

affinity lower than physiological substrates ([8]; vs peptides from physiological substrates USP1 and GFP-RIC8B): 3–5 fold
Molecule: NQRFGSNNTSGS-OH [WT KLHDC2-derived peptide]

Kd [9]: 264 nM
B1: USP1 fragment (residues 592-671) (domain or fragment, UniProt O94782 592-671, looked up)
chain: B2 chain

Kd [8]: 260 nM
B3: USP1: USP1 fragment, residues 592–671 (protein)
chain: B2 chain
modifications: left off: GST, N-terminal, cleaved
pre-incubation required for maximal ubiquitylation (in words) ([5]; KLHDC2 -KK): required no pre-incubation
*UB transfer to substrate (in words) ([5]; UB~UBE2R2, neddylated CRL2^KLHDC2 (WT), 0.6 μM substrate, pH 7.5, n=3): preferentially promotes *UB ligation to SELK or USP1
rate of substrate modification kobs [10]: 0.21 s⁻¹

binding result [17]: binds
Molecule: NQRFGSNNTSGS (peptide, UniProt Q9Y2U9 395-406, looked up) [12mer peptide derived from the C-terminus of KLHDC2]
